Biological target: T1, GLD-3L with C-terminal His tag, MBP cleaved off (C. elegans, UniProt Q95ZK7-1 1-969)
T1 construct: GLD-3, C. elegans, isoform GLD-3L; also called GLD-3L^6His; source: insect cells, purified on amylose beads, MBP cleaved off by PreScission protease; not shown: MBP, N-terminal, cleaved; His6, C-terminal, kept
T1 sequence (looked up): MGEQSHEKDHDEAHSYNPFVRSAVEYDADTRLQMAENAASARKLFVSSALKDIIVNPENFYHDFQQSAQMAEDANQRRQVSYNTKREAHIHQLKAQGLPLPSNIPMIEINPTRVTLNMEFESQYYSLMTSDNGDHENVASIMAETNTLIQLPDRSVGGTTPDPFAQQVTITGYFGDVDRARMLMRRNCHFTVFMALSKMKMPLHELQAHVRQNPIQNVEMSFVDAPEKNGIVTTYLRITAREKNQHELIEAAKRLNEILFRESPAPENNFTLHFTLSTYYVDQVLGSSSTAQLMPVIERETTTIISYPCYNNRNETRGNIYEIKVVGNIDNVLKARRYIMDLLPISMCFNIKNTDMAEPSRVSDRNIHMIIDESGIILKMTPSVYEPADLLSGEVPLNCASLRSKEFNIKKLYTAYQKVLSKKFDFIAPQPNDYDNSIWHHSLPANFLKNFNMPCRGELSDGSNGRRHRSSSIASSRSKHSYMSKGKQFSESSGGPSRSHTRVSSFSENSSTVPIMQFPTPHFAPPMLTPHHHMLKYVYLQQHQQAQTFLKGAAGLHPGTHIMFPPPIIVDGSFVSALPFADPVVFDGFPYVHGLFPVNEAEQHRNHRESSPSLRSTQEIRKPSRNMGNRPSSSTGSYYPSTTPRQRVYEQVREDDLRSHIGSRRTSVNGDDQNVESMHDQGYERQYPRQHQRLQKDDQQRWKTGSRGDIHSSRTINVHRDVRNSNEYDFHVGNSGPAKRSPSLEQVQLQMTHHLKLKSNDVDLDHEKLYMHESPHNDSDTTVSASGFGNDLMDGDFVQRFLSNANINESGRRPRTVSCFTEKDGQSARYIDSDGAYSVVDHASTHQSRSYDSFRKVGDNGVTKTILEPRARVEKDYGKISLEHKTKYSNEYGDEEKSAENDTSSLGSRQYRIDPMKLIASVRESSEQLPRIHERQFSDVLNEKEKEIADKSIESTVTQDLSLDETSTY
Assay: pull-down; competition assay; MBP-FBF-1 immobilized on amylose beads, loaded with GLD-3L, then challenged with increasing amounts of free GLS-1; washed; GLD-3L on beads quantified from Western blot bands
Conditions: both partners purified

B1: MBP-FBF-1 with C-terminal His tag, from insect cells (natural protein, C. elegans, UniProt Q9N5M6 1-614, looked up)
chain: MDQSKMRYTNQFRKTPQKPTSTEVGNHHTPAHSPMAQHETSMWNFNSLNPYFSMLNMNDGMNYARHQQNHIVTSRPPTPLTDLMSLRSFQSFPNVFMPVSRSRTSSFIQSDTDSSRLEPDDFSQNVRYCSTEIDRNNSSSKNDHLKYSRPALSRNSRSFTRSNNVLPTWSLDSNGEMRSRLSLSEVLDSGDLMKFAVDKTGCQFLEKAVKGSLTSYQKFQLFEQVIGRKDDFLKLSTNIFGNYFVQEIIGMSLTTYDDDNIKRQEKLKNFISSQMTDMCLDKFACRVIQSSLQNMDLSLACKLVQALPRDARLIAICVDQNANHVIQKVVAVIPLKNWEFIVDFVATPEHLRQICFDKYGCRVVQTIIEKLTADSINVDLTSAAQHLRERALQRLMTSVTNRCQELATNEYANYIIQHIVSNDDLAVYRECIIEKCLMRNLLSLSQEKFASHVVEKAFLHAPMELLAEMMDEIFDGYMPHPGTGKDALDIMMFHQFGNYVVQCMLTICCDAVSGRRQTKEGSYDHANSFQVWLKKLHSRVTKERHRLSRFSSGKKMIETLAHLRSTHPIYGLQSSGHESFKTDCFSTASEHDGLELEKNGIEEGNLRLMRTFSP
notes: FBF-1, PUF protein, C. elegans; also called MBP-FBF-1^6His; source: insect cells, purified on amylose beads; not shown: His6, C-terminal, kept
  binding result: binds
